In paper PMC11480844:

B1: H2-Kb / B7 (parent)
chain 1: GQQVQQSPTSLVLQEGENAELQCNFSTSLNSMQWFYQRPGGSLVSVFYNPSGTKQSGRLTSTTVIKERRSSLHISSSQITDSGTYLCAMERDMGYKLTFGTGTSLLVDP
chain 2: EAAVTQSPRNKVAVTGGKVTLSCNQTNNHNNMYWYRQDTGHGLRLIHYSYGAGSTEKGDIPDGYKASRPSQENFSLILELATPSQTSVYFCASGDPGDQDTQYFGPGTRLLVL
chain 3: not shown
chain 4: IQKTPQIQVYSRHPPENGKPNILNCYVTQFHPPHIEIQMLKNGKKIPKVEMSDMSFSKDWSFYILAHTEFTPTETDTYACRVKHDSMAEPKTVYWDRDM
chain 5: SIINFEKL
B2: H2-Kb / E4 (parent)
chain 1: AQSVTQPDARVTVSEGASLQLRCKYSYSGTPYLFWYVQYPRQGLQLLLKYYSGDPVVQGVNGFEAEFIKSNSSFHLRKASVHWSDSAVYFCAVSAGQGGSAKLIFGEGTKLTVSS
chain 2: GGIITQTPKFLIGQEGQKLTLKCQQNFNHDTMYWYRQDSGKGLRLIYYSITENDLQKGDLSEGYDASREKKSSFSLTVTSAQKNEMAVFLCASSIWGDSYEQYFGPGTRLTVL
chain 3: not shown
chain 4: B1 chain 4
chain 5: SIINFEKL
B3: H2-Kb / G6 (parent)
chain 1: AQSVTQPDARVTVSEGASLQLRCKYSYFGTPYLFWYVQYPRQGLQLLLKYYPGDPVVQGVNGFEAEFSKSNSSFHLRKASVHWSDWAVYFCAVTPGGSNAKLTFGKGTKLSVKS
chain 2: NSGVVQSPRYIIKGKGERSILKCIPISGHLSVAWYQQTQGQELKFFIQHYDKMERDKGNLPSRFSVQQFDDYHSEMNMSALELEDSAVYFCASSRQGGDNNQAPLFGEGTRLSVL
chain 3: not shown
chain 4: B1 chain 4
chain 5: SIINFEKL

Variants of: B1
Experiment: % of reporter cells activated (NFAT-GFP), raw
Settings: with B7; scale: % of reporter cells activated
Also: test concentration or dose not given here.

Variant	ratio to parent
chain 5 F5Q	1.25
chain 5 F5T	1.05
chain 5 F5K	1.74
chain 5 F5Y	1.2
chain 5 F5P	1.74
chain 5 F5S	0.831
chain 5 F5L	1.46
chain 5 F5I	0.938
chain 5 F5W	1.55
chain 5 F5G	1.03
chain 5 F5H	1.34
chain 5 F5R	0.923
chain 5 F5C	1.97
chain 5 F5A	1.62
chain 5 F5D	1.55
chain 5 F5N	1.31
chain 5 F5V	0.615
chain 5 F5E	1.49
chain 5 F5M	1.68
chain 5 E6M	0.985
chain 5 E6H	1.65
chain 5 E6R	1.46
chain 5 E6F	1.52
chain 5 E6W	1.09
chain 5 E6L	1
chain 5 E6P	1.25

Variant	ratio to parent
chain 5 E6N	1.2
chain 5 E6Q	0.754
chain 5 E6D	1.43
chain 5 E6S	1.38
chain 5 E6A	1.17
chain 5 E6K	1.32
chain 5 E6I	1.14
chain 5 E6V	1.02
chain 5 E6Y	0.969
chain 5 E6C	1.46
chain 5 E6T	1.63
chain 5 E6G	1.45
chain 5 N4L	1.82
chain 5 N4G	1.15
chain 5 N4A	1.31
chain 5 N4F	1.26
chain 5 N4P	0.877
chain 5 N4Q	1.08
chain 5 N4E	1.35
chain 5 N4M	1.38
chain 5 N4W	1.28
chain 5 N4H	1.49
chain 5 N4I	1.43
chain 5 N4T	1.12
chain 5 N4C	0.908
chain 5 N4Y	1.03

Variant	ratio to parent
chain 5 N4S	1.11
chain 5 N4K	1.45
chain 5 N4V	0.985
chain 5 N4R	1
chain 5 N4D	1.69
chain 5 L8D	0.615
chain 5 L8C	1.4
chain 5 L8M	0.892
chain 5 L8V	0.585
chain 5 L8I	0.831
chain 5 L8H	1.23
chain 5 L8Q	0.938
chain 5 L8N	1
chain 5 L8T	0.646
chain 5 L8G	1.42
chain 5 L8W	0.585
chain 5 L8K	0.785
chain 5 L8A	0.862
chain 5 L8P	1.11
chain 5 L8E	0.326
chain 5 L8R	1.69
chain 5 L8Y	0.769
chain 5 L8S	0.6
chain 5 L8F	0.677
chain 5 K7T	1.02
chain 5 K7D	1.02

Variant	ratio to parent
chain 5 K7I	1.25
chain 5 K7M	0.908
chain 5 K7V	1.17
chain 5 K7N	0.954
chain 5 K7R	0.358
chain 5 K7H	1.66
chain 5 K7Y	1.18
chain 5 K7G	0.738
chain 5 K7W	0.769
chain 5 K7P	1.48
chain 5 K7A	1.17
chain 5 K7L	1.32
chain 5 K7E	1.14
chain 5 K7Q	0.815
chain 5 K7F	0.846
chain 5 K7C	1.05
chain 5 K7S	1.18
chain 5 I3H	1.68
chain 5 I3C	1.58
chain 5 I3E	1.32
chain 5 I3V	1.17
chain 5 I3Y	1.2
chain 5 I3Q	1.65
chain 5 I3P	1.45
chain 5 I3T	1.48
chain 5 I3A	1.68

Variant	ratio to parent
chain 5 I3F	1.02
chain 5 I3W	1.48
chain 5 I3D	1.11
chain 5 I3L	1.4
chain 5 I3G	1.86
chain 5 I3R	0.862
chain 5 I3K	1.75
chain 5 I3N	1.62
chain 5 I3S	0.646
chain 5 I3M	1.29
chain 5 I2M	1.65
chain 5 I2N	2.11
chain 5 I2V	1.43
chain 5 I2S	1.45
chain 5 I2C	1.11
chain 5 I2D	1.45
chain 5 I2A	1.58
chain 5 I2R	0.846
chain 5 I2P	1.72
chain 5 I2W	1.46
chain 5 I2E	1.35
chain 5 I2T	1.85
chain 5 I2L	1.62
chain 5 I2G	1.85
chain 5 I2Y	1.48
chain 5 I2H	1.83

Variant	ratio to parent
chain 5 I2K	1.51
chain 5 I2Q	1.25
chain 5 I2F	1.05
chain 5 S1F	0.831
chain 5 S1I	0.969
chain 5 S1C	1.8
chain 5 S1N	0.862
chain 5 S1A	1.63
chain 5 S1M	1.42
chain 5 S1Q	2.08
chain 5 S1R	1
chain 5 S1K	1.4
chain 5 S1D	1.55
chain 5 S1V	1.8
chain 5 S1Y	1.37
chain 5 S1E	1.29
chain 5 S1P	1.74
chain 5 S1W	1.77
chain 5 S1T	1.62
chain 5 S1H	1.45
chain 5 S1L	1.03
chain 5 S1G	1.57

Variants of: B2
Experiment: % of reporter cells activated (NFAT-GFP), raw
Settings: with E4

Variant	ratio to parent
chain 5 E6C	0.651
chain 5 E6K	0.873
chain 5 E6F	0.698
chain 5 E6W	0.635
chain 5 E6Q	0.778
chain 5 E6N	0.619
chain 5 E6P	0.46
chain 5 E6Y	1.08
chain 5 E6D	1.05
chain 5 E6M	0.54
chain 5 E6L	0.381
chain 5 E6G	0.746
chain 5 E6R	0.81
chain 5 E6V	1.05
chain 5 E6I	0.873
chain 5 E6H	1.21
chain 5 E6A	0.635
chain 5 E6S	0.952
chain 5 E6T	0.841
chain 5 F5H	0.825
chain 5 F5G	0.46
chain 5 F5C	1.63
chain 5 F5I	0.746
chain 5 F5N	0.635
chain 5 F5D	1.32
chain 5 F5M	0.629
chain 5 F5K	0.825
chain 5 F5L	0.698
chain 5 F5A	1.1
chain 5 F5E	0.429

Variants of: B3
Experiment: % of reporter cells activated (NFAT-GFP), raw
Settings: with G6; scale: % of reporter cells activated

Variant	ratio to parent
chain 5 I3R	0.109
chain 5 I3L	0.926
chain 5 I3F	0.523
chain 5 I3E	0.395
chain 5 I3D	0.239
chain 5 I3Q	0.193
chain 5 I3S	0.181
chain 5 I3T	0.284
chain 5 I3V	1.18
chain 5 I3Y	0.272
chain 5 I3K	0.276
chain 5 I3A	0.333
chain 5 I3N	0.181
chain 5 I3G	0.226
chain 5 I3P	0.206
chain 5 I3H	0.288
chain 5 I3M	0.465
chain 5 I3W	0.276
chain 5 I3C	0.292
chain 5 K7C	0.272
chain 5 K7I	0.358
chain 5 K7N	0.412
chain 5 K7S	0.963
chain 5 K7A	1.4
chain 5 K7H	0.292
chain 5 K7M	0.379

Variant	ratio to parent
chain 5 K7V	0.235
chain 5 K7T	0.16
chain 5 K7Q	0.267
chain 5 K7L	0.259
chain 5 K7Y	0.235
chain 5 K7D	0.202
chain 5 K7F	0.189
chain 5 K7P	0.346
chain 5 K7E	0.276
chain 5 K7R	14.4
chain 5 K7G	6.68
chain 5 K7W	0.963
chain 5 S1D	0.395
chain 5 S1I	0.909
chain 5 S1A	0.65
chain 5 S1N	0.239
chain 5 S1P	1.48
chain 5 S1E	0.239
chain 5 S1V	1.09
chain 5 S1L	3.02
chain 5 S1M	0.284
chain 5 S1F	0.449
chain 5 S1W	0.362
chain 5 S1Q	0.42
chain 5 S1T	0.222
chain 5 S1C	0.502

Variant	ratio to parent
chain 5 S1K	2.47
chain 5 S1R	1.64
chain 5 S1H	0.218
chain 5 S1G	0.235
chain 5 S1Y	0.156
chain 5 L8E	0.173
chain 5 L8M	0.267
chain 5 L8N	0.148
chain 5 L8Y	2.09
chain 5 L8F	0.218
chain 5 L8A	0.206
chain 5 L8P	0.206
chain 5 L8I	0.819
chain 5 L8R	0.617
chain 5 L8H	7.85
chain 5 L8G	0.457
chain 5 L8Q	0.165
chain 5 L8V	0.56
chain 5 L8W	1.92
chain 5 L8C	0.251
chain 5 L8D	0.152
chain 5 L8K	0.292
chain 5 L8S	0.086
chain 5 L8T	0.354
chain 5 N4H	0.276
chain 5 N4W	0.148

Variant	ratio to parent
chain 5 N4R	0.255
chain 5 N4D	0.267
chain 5 N4Y	0.14
chain 5 N4F	0.202
chain 5 N4I	0.272
chain 5 N4T	0.235
chain 5 N4S	0.193
chain 5 N4C	0.177
chain 5 N4K	0.42
chain 5 N4Q	0.128
chain 5 N4A	0.251
chain 5 N4V	0.193
chain 5 N4P	0.198
chain 5 N4M	0.173
chain 5 N4L	0.284
chain 5 N4E	0.177
chain 5 N4G	0.239
chain 5 E6D	2.75
chain 5 E6N	0.63
chain 5 E6Y	0.778
chain 5 E6L	0.193
chain 5 E6C	0.21
chain 5 E6S	0.428
chain 5 E6H	0.494
chain 5 E6K	0.226
chain 5 E6F	0.914

Variant	ratio to parent
chain 5 E6Q	0.292
chain 5 E6M	0.551
chain 5 E6P	0.189
chain 5 E6G	0.506
chain 5 E6R	0.259
chain 5 E6V	0.222
chain 5 E6A	0.724
chain 5 E6I	0.321
chain 5 E6W	7.22
chain 5 E6T	0.362
chain 5 F5G	0.198
chain 5 F5P	0.272
chain 5 F5A	0.383
chain 5 F5L	0.959
chain 5 F5S	0.362
chain 5 F5Y	0.576
chain 5 F5R	0.247
chain 5 F5E	0.424
chain 5 F5H	0.395
chain 5 F5M	1.34
chain 5 F5V	0.116
chain 5 F5K	0.284
chain 5 F5D	0.313
chain 5 F5T	0.177
chain 5 F5Q	2.04
chain 5 F5N	0.3

Variant	ratio to parent
chain 5 F5I	0.263
chain 5 F5C	0.609
chain 5 F5W	0.263
chain 5 I2K	0.551
chain 5 I2M	0.214
chain 5 I2T	0.305
chain 5 I2S	0.115
chain 5 I2N	0.321
chain 5 I2W	0.185
chain 5 I2V	0.292
chain 5 I2L	0.247
chain 5 I2R	0.16
chain 5 I2C	0.239
chain 5 I2Q	0.255
chain 5 I2P	0.329
chain 5 I2H	0.259
chain 5 I2G	0.288
chain 5 I2F	0.226
chain 5 I2D	0.412
chain 5 I2E	0.453
chain 5 I2Y	0.284
chain 5 I2A	0.305
